Assay results published in patent US20250368745A1 (published 2025).

B1: SA301a LC-S93V (antibody, V domains shown)
VH: QVQLQESGPGLVKPSQTLSLTCTVSGYSITSDYNSHWIRQPPGKGLEWIGYIHYSGSTNYNPSLKSRVTISRDTSKNQFSLKLSSVTAADTAVYYCARNYGSIYVNYFDYWGQGTLVTVSS
VL: EIVLTQSPATLSLSPGERATLSCSASSSVSYMYWYQQKPGQAPRPLIYRTSNLASGIPARFSGSGSGTDFTLTISSLEPEDFAVYYCQQYHVYPTFGGGTKVEIK
B2: SA301a LC-Y94A (antibody, V domains shown)
VH: QVQLQESGPGLVKPSQTLSLTCTVSGYSITSDYNSHWIRQPPGKGLEWIGYIHYSGSTNYNPSLKSRVTISRDTSKNQFSLKLSSVTAADTAVYYCARNYGSIYVNYFDYWGQGTLVTVSS
VL: EIVLTQSPATLSLSPGERATLSCSASSSVSYMYWYQQKPGQAPRPLIYRTSNLASGIPARFSGSGSGTDFTLTISSLEPEDFAVYYCQQYHSAPTFGGGTKVEIK
B3: SA301a LC-Y94M (antibody, V domains shown)
VH: QVQLQESGPGLVKPSQTLSLTCTVSGYSITSDYNSHWIRQPPGKGLEWIGYIHYSGSTNYNPSLKSRVTISRDTSKNQFSLKLSSVTAADTAVYYCARNYGSIYVNYFDYWGQGTLVTVSS
VL: EIVLTQSPATLSLSPGERATLSCSASSSVSYMYWYQQKPGQAPRPLIYRTSNLASGIPARFSGSGSGTDFTLTISSLEPEDFAVYYCQQYHSMPTFGGGTKVEIK
B4: SA301a LC-S93K (antibody, V domains shown)
VH: QVQLQESGPGLVKPSQTLSLTCTVSGYSITSDYNSHWIRQPPGKGLEWIGYIHYSGSTNYNPSLKSRVTISRDTSKNQFSLKLSSVTAADTAVYYCARNYGSIYVNYFDYWGQGTLVTVSS
VL: EIVLTQSPATLSLSPGERATLSCSASSSVSYMYWYQQKPGQAPRPLIYRTSNLASGIPARFSGSGSGTDFTLTISSLEPEDFAVYYCQQYHKYPTFGGGTKVEIK
B5: SA301a LC-S93D (antibody, V domains shown)
VH: QVQLQESGPGLVKPSQTLSLTCTVSGYSITSDYNSHWIRQPPGKGLEWIGYIHYSGSTNYNPSLKSRVTISRDTSKNQFSLKLSSVTAADTAVYYCARNYGSIYVNYFDYWGQGTLVTVSS
VL: EIVLTQSPATLSLSPGERATLSCSASSSVSYMYWYQQKPGQAPRPLIYRTSNLASGIPARFSGSGSGTDFTLTISSLEPEDFAVYYCQQYHDYPTFGGGTKVEIK
B6: SA301a LC-S93A (antibody, V domains shown)
VH: QVQLQESGPGLVKPSQTLSLTCTVSGYSITSDYNSHWIRQPPGKGLEWIGYIHYSGSTNYNPSLKSRVTISRDTSKNQFSLKLSSVTAADTAVYYCARNYGSIYVNYFDYWGQGTLVTVSS
VL: EIVLTQSPATLSLSPGERATLSCSASSSVSYMYWYQQKPGQAPRPLIYRTSNLASGIPARFSGSGSGTDFTLTISSLEPEDFAVYYCQQYHAYPTFGGGTKVEIK
B7: SA301a LC-Y94G (antibody, V domains shown)
VH: QVQLQESGPGLVKPSQTLSLTCTVSGYSITSDYNSHWIRQPPGKGLEWIGYIHYSGSTNYNPSLKSRVTISRDTSKNQFSLKLSSVTAADTAVYYCARNYGSIYVNYFDYWGQGTLVTVSS
VL: EIVLTQSPATLSLSPGERATLSCSASSSVSYMYWYQQKPGQAPRPLIYRTSNLASGIPARFSGSGSGTDFTLTISSLEPEDFAVYYCQQYHSGPTFGGGTKVEIK
B8: SA301a LC-Y94N (antibody, V domains shown)
VH: QVQLQESGPGLVKPSQTLSLTCTVSGYSITSDYNSHWIRQPPGKGLEWIGYIHYSGSTNYNPSLKSRVTISRDTSKNQFSLKLSSVTAADTAVYYCARNYGSIYVNYFDYWGQGTLVTVSS
VL: EIVLTQSPATLSLSPGERATLSCSASSSVSYMYWYQQKPGQAPRPLIYRTSNLASGIPARFSGSGSGTDFTLTISSLEPEDFAVYYCQQYHSNPTFGGGTKVEIK
B9: SA301a LC-Y94L (antibody, V domains shown)
VH: QVQLQESGPGLVKPSQTLSLTCTVSGYSITSDYNSHWIRQPPGKGLEWIGYIHYSGSTNYNPSLKSRVTISRDTSKNQFSLKLSSVTAADTAVYYCARNYGSIYVNYFDYWGQGTLVTVSS
VL: EIVLTQSPATLSLSPGERATLSCSASSSVSYMYWYQQKPGQAPRPLIYRTSNLASGIPARFSGSGSGTDFTLTISSLEPEDFAVYYCQQYHSLPTFGGGTKVEIK
B10: SA301a LC-S93P (antibody, V domains shown)
VH: QVQLQESGPGLVKPSQTLSLTCTVSGYSITSDYNSHWIRQPPGKGLEWIGYIHYSGSTNYNPSLKSRVTISRDTSKNQFSLKLSSVTAADTAVYYCARNYGSIYVNYFDYWGQGTLVTVSS
VL: EIVLTQSPATLSLSPGERATLSCSASSSVSYMYWYQQKPGQAPRPLIYRTSNLASGIPARFSGSGSGTDFTLTISSLEPEDFAVYYCQQYHPYPTFGGGTKVEIK
B11: SA301a LC-S93M (antibody, V domains shown)
VH: QVQLQESGPGLVKPSQTLSLTCTVSGYSITSDYNSHWIRQPPGKGLEWIGYIHYSGSTNYNPSLKSRVTISRDTSKNQFSLKLSSVTAADTAVYYCARNYGSIYVNYFDYWGQGTLVTVSS
VL: EIVLTQSPATLSLSPGERATLSCSASSSVSYMYWYQQKPGQAPRPLIYRTSNLASGIPARFSGSGSGTDFTLTISSLEPEDFAVYYCQQYHMYPTFGGGTKVEIK
B12: SA301a LC-S93F (antibody, V domains shown)
VH: QVQLQESGPGLVKPSQTLSLTCTVSGYSITSDYNSHWIRQPPGKGLEWIGYIHYSGSTNYNPSLKSRVTISRDTSKNQFSLKLSSVTAADTAVYYCARNYGSIYVNYFDYWGQGTLVTVSS
VL: EIVLTQSPATLSLSPGERATLSCSASSSVSYMYWYQQKPGQAPRPLIYRTSNLASGIPARFSGSGSGTDFTLTISSLEPEDFAVYYCQQYHFYPTFGGGTKVEIK
B13: SA301a LC-S93I (antibody, V domains shown)
VH: QVQLQESGPGLVKPSQTLSLTCTVSGYSITSDYNSHWIRQPPGKGLEWIGYIHYSGSTNYNPSLKSRVTISRDTSKNQFSLKLSSVTAADTAVYYCARNYGSIYVNYFDYWGQGTLVTVSS
VL: EIVLTQSPATLSLSPGERATLSCSASSSVSYMYWYQQKPGQAPRPLIYRTSNLASGIPARFSGSGSGTDFTLTISSLEPEDFAVYYCQQYHIYPTFGGGTKVEIK
B14: SA301a LC-S93L (antibody, V domains shown)
VH: QVQLQESGPGLVKPSQTLSLTCTVSGYSITSDYNSHWIRQPPGKGLEWIGYIHYSGSTNYNPSLKSRVTISRDTSKNQFSLKLSSVTAADTAVYYCARNYGSIYVNYFDYWGQGTLVTVSS
VL: EIVLTQSPATLSLSPGERATLSCSASSSVSYMYWYQQKPGQAPRPLIYRTSNLASGIPARFSGSGSGTDFTLTISSLEPEDFAVYYCQQYHLYPTFGGGTKVEIK
B15: SA301a LC-Y94R (antibody, V domains shown)
VH: QVQLQESGPGLVKPSQTLSLTCTVSGYSITSDYNSHWIRQPPGKGLEWIGYIHYSGSTNYNPSLKSRVTISRDTSKNQFSLKLSSVTAADTAVYYCARNYGSIYVNYFDYWGQGTLVTVSS
VL: EIVLTQSPATLSLSPGERATLSCSASSSVSYMYWYQQKPGQAPRPLIYRTSNLASGIPARFSGSGSGTDFTLTISSLEPEDFAVYYCQQYHSRPTFGGGTKVEIK
B16: SA301a LC-S93G (antibody, V domains shown)
VH: QVQLQESGPGLVKPSQTLSLTCTVSGYSITSDYNSHWIRQPPGKGLEWIGYIHYSGSTNYNPSLKSRVTISRDTSKNQFSLKLSSVTAADTAVYYCARNYGSIYVNYFDYWGQGTLVTVSS
VL: EIVLTQSPATLSLSPGERATLSCSASSSVSYMYWYQQKPGQAPRPLIYRTSNLASGIPARFSGSGSGTDFTLTISSLEPEDFAVYYCQQYHGYPTFGGGTKVEIK
B17: SA301a LC-S93Q (antibody, V domains shown)
VH: QVQLQESGPGLVKPSQTLSLTCTVSGYSITSDYNSHWIRQPPGKGLEWIGYIHYSGSTNYNPSLKSRVTISRDTSKNQFSLKLSSVTAADTAVYYCARNYGSIYVNYFDYWGQGTLVTVSS
VL: EIVLTQSPATLSLSPGERATLSCSASSSVSYMYWYQQKPGQAPRPLIYRTSNLASGIPARFSGSGSGTDFTLTISSLEPEDFAVYYCQQYHQYPTFGGGTKVEIK
B18: SA301a LC-Y94S (antibody, V domains shown)
VH: QVQLQESGPGLVKPSQTLSLTCTVSGYSITSDYNSHWIRQPPGKGLEWIGYIHYSGSTNYNPSLKSRVTISRDTSKNQFSLKLSSVTAADTAVYYCARNYGSIYVNYFDYWGQGTLVTVSS
VL: EIVLTQSPATLSLSPGERATLSCSASSSVSYMYWYQQKPGQAPRPLIYRTSNLASGIPARFSGSGSGTDFTLTISSLEPEDFAVYYCQQYHSSPTFGGGTKVEIK
B19: SA301a LC-Y94V (antibody, V domains shown)
VH: QVQLQESGPGLVKPSQTLSLTCTVSGYSITSDYNSHWIRQPPGKGLEWIGYIHYSGSTNYNPSLKSRVTISRDTSKNQFSLKLSSVTAADTAVYYCARNYGSIYVNYFDYWGQGTLVTVSS
VL: EIVLTQSPATLSLSPGERATLSCSASSSVSYMYWYQQKPGQAPRPLIYRTSNLASGIPARFSGSGSGTDFTLTISSLEPEDFAVYYCQQYHSVPTFGGGTKVEIK
B20: SA301a LC-Y94I (antibody, V domains shown)
VH: QVQLQESGPGLVKPSQTLSLTCTVSGYSITSDYNSHWIRQPPGKGLEWIGYIHYSGSTNYNPSLKSRVTISRDTSKNQFSLKLSSVTAADTAVYYCARNYGSIYVNYFDYWGQGTLVTVSS
VL: EIVLTQSPATLSLSPGERATLSCSASSSVSYMYWYQQKPGQAPRPLIYRTSNLASGIPARFSGSGSGTDFTLTISSLEPEDFAVYYCQQYHSIPTFGGGTKVEIK
B21: SA301a LC-Y94F (antibody, V domains shown)
VH: QVQLQESGPGLVKPSQTLSLTCTVSGYSITSDYNSHWIRQPPGKGLEWIGYIHYSGSTNYNPSLKSRVTISRDTSKNQFSLKLSSVTAADTAVYYCARNYGSIYVNYFDYWGQGTLVTVSS
VL: EIVLTQSPATLSLSPGERATLSCSASSSVSYMYWYQQKPGQAPRPLIYRTSNLASGIPARFSGSGSGTDFTLTISSLEPEDFAVYYCQQYHSFPTFGGGTKVEIK
B22: SA301a LC-S93Y (antibody, V domains shown)
VH: QVQLQESGPGLVKPSQTLSLTCTVSGYSITSDYNSHWIRQPPGKGLEWIGYIHYSGSTNYNPSLKSRVTISRDTSKNQFSLKLSSVTAADTAVYYCARNYGSIYVNYFDYWGQGTLVTVSS
VL: EIVLTQSPATLSLSPGERATLSCSASSSVSYMYWYQQKPGQAPRPLIYRTSNLASGIPARFSGSGSGTDFTLTISSLEPEDFAVYYCQQYHYYPTFGGGTKVEIK

target: T1, human IL-18BP (human, UniProt O95998 31-194); experiment: BLI, apparent KD
T1 construct: UniProt printed as 095998; also called hIL-18BP
T1 sequence: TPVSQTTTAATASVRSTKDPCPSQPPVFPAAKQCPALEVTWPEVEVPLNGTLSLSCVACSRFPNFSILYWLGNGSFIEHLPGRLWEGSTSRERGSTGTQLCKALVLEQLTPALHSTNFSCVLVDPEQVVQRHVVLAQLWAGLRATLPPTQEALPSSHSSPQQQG

Row | Binder | Kd [nM]
1 | B1 | 0.19
2 | B2 | 1.15
3 | B3 | 1.93
4 | B4 | 0.16
5 | B5 | 0.23
6 | B6 | 0.52
7 | B7 | 0.12
8 | B8 | 0.22
9 | B9 | 0.16
10 | B10 | 0.41
11 | B11 | 0.14
12 | B12 | 0.15
13 | B13 | 0.21
14 | B14 | 0.23
15 | B15 | 0.29
16 | B16 | 0.08
17 | B17 | 0.24
18 | B18 | 0.63
19 | B19 | 2.35
20 | B20 | 1.27
21 | B21 | 0.13
22 | B22 | 0.19
